Experimental data published in patent US20140274782A1, “AFFINITY REAGENTS AND METHODS FOR DETECTION, PURIFICATION, AND PROTEOMIC ANALYSIS OF METHYLATED PROTEINS” (The Board of Trustees of the Leland Stanford Junior …, priority 2013, published 2014).

B1: CLASP2 (protein, UniProt O75122 1-1294, looked up)
CLIP-associating protein 2: MAMGDDKSFDDEESVDGNRPSSAASAFKVPAPKTSGNPANSARKPGSAGGPKVGGASKEGGAGAVDEDDFIKAFTDVPSIQIYSSRELEETLNKIREILSDDKHDWDQRANALKKIRSLLVAGAAQYDCFFQHLRLLDGALKLSAKDLRSQVVREACITVAHLSTVLGNKFDHGAEAIVPTLFNLVPNSAKVMATSGCAAIRFIIRHTHVPRLIPLITSNCTSKSVPVRRRSFEFLDLLLQEWQTHSLERHAAVLVETIKKGIHDADAEARVEARKTYMGLRNHFPGEAETLYNSLEPSYQKSLQTYLKSSGSVASLPQSDRSSSSSQESLNRPFSSKWSTANPSTVAGRVSAGSSKASSLPGSLQRSRSDIDVNAAAGAKAHHAAGQSVRSGRLGAGALNAGSYASLEDTSDKLDGTASEDGRVRAKLSAPLAGMGNAKADSRGRSRTKMVSQSQPGSRSGSPGRVLTTTALSTVSSGVQRVLVNSASAQKRSKIPRSQGCSREASPSRLSVARSSRIPRPSVSQGCSREASRESSRDTSPVRSFQPLASRHHSRSTGALYAPEVYGASGPGYGISQSSRLSSSVSAMRVLNTGSDVEEAVADALKKPARRRYESYGMHSDDDANSDASSACSERSYSSRNGSIPTYMRQTEDVAEVLNRCASSNWSERKEGLLGLQNLLKNQRTLSRVELKRLCEIFTRMFADPHGKRVFSMFLETLVDFIQVHKDDLQDWLFVLLTQLLKKMGADLLGSVQAKVQKALDVTRESFPNDLQFNILMRFTVDQTQTPSLKVKVAILKYIETLAKQMDPGDFINSSETRLAVSRVITWTTEPKSSDVRKAAQSVLISLFELNTPEFTMLLGALPKTFQDGATKLLHNHLRNTGNGTQSSMGSPLTRPTPRSPANWSSPLTSPTNTSQNTLSPSAFDYDTENMNSEDIYSSLRGVTEAIQNFSFRSQEDMNEPLKRDSKKDDGDSMCGGPGMSDPRAGGDATDSSQTALDNKASLLHSMPTHSSPRSRDYNPYNYSDSISPFNKSALKEAMFDDDADQFPDDLSLDHSDLVAELLKELSNHNERVEERKIALYELMKLTQEESFSVWDEHFKTILLLLLETLGDKEPTIRALALKVLREILRHQPARFKNYAELTVMKTLEAHKDPHKEVVRSAEEAASVLATSISPEQCIKVLCPIIQTADYPINLAAIKMQTKVIERVSKETLNLLLPEIMPGLIQGYDNSESSVRKACVFCLVAVHAVIGDELKPHLSQLTGSKMKLLNLYIKRAQTGSGGADPTTDVSGQS
B2: DNAJC2 (protein, UniProt Q99543 1-621, looked up)
DnaJ homolog subfamily C …: MLLLPSAADGRGTAITHALTSASTLCQVEPVGRWFEAFVKRRNRNASASFQELEDKKELSEESEDEELQLEEFPMLKTLDPKDWKNQDHYAVLGLGHVRYKATQRQIKAAHKAMVLKHHPDKRKAAGEPIKEGDNDYFTCITKAYEMLSDPVKRRAFNSVDPTFDNSVPSKSEAKDNFFEVFTPVFERNSRWSNKKNVPKLGDMNSSFEDVDIFYSFWYNFDSWREFSYLDEEEKEKAECRDERRWIEKQNRATRAQRKKEEMNRIRTLVDNAYSCDPRIKKFKEEEKAKKEAEKKAKAEAKRKEQEAKEKQRQAELEAARLAKEKEEEEVRQQALLAKKEKDIQKKAIKKERQKLRNSCKTWNHFSDNEAERVKMMEEVEKLCDRLELASLQCLNETLTSCTKEVGKAALEKQIEEINEQIRKEKEEAEARMRQASKNTEKSTGGGGNGSKNWSEDDLQLLIKAVNLFPAGTNSRWEVIANYMNIHSSSGVKRTAKDVIGKAKSLQKLDPHQKDDINKKAFDKFKKEHGVVPQADNATPSERFEGPYTDFTPWTTEEQKLLEQALKTYPVNTPERWEKIAEAVPGRTKKDCMKRYKELVEMVKAKKAAQEQVLNASRAKK
B3: POLDIP3 (protein, UniProt Q9BY77 2-421, looked up)
Polymerase delta-interacting …: ADISLDELIRKRGAAAKGRLNARPGVGGVRSRVGIQQGLLSQSTRTATFQQRFDARQKIGLSDARLKLGVKDAREKLLQKDARFRIKGKVQDAREMLNSRKQQTTVPQKPRQVADAREKISLKRSSPAAFINPPIGTVTPALKLTKTIQVPQQKAMAPLHPHPAGMRINVVNNHQAKQNLYDLDEDDDGIASVPTKQMKFAASGGFLHHMAGLSSSKLSMSKALPLTKVVQNDAYTAPALPSSIRTKALTNMSRTLVNKEEPPKELPAAEPVLSPLEGTKMTVNNLHPRVTEEDIVELFCVCGALKRARLVHPGVAEVVFVKKDDAITAYKKYNNRCLDGQPMKCNLHMNGNVITSDQPILLRLSDSPSMKKESELPRRVNSASSSNPPAEVDPDTILKALFKSSGASVTTQPTEFKIKL
B4: TXN (protein, UniProt P10599 2-105, looked up)
Thioredoxin: VKQIESKTAFQEALDAAGDKLVVVDFSATWCGPCKMIKPFFHSLSEKYSNVIFLEVDVDDCQDVASECEVKCMPTFQFFKKGQKVGEFSGANKEKLEATINELV

The molecules below were run on 3×MBT domain of L3MBTL1 (assay: Triple SILAC pull-down, 3xMBT/3xMBTD355N ratio (cytoplasmic, nuclear and chromatin fractions of 293T cells)). Conditions: SILAC ratio, pull-down 3xMBT vs 3xMBTD355N; experiment with UNC0638 in heavy SILAC media.
Assay type: binding, human
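Throughout, for 3xMBT/D355N UNC Heavy: proteins quantified with MaxQuant, requiring at least two unique peptides and quantification in both label directions, normalized to the mean of proteins from a digested loading control.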
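Throughout, for 3xMBT/D355N UNC Light: proteins quantified with MaxQuant, requiring at least two unique peptides and quantification in both label directions, normalized to the mean of proteins from a digested loading control.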
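Throughout, for Relative to UNC0638 Average: mass spectrometry (Q-Exactive) SILAC quantitation, DMSO/UNC0638 ratio computed after subtracting 3×MBTD355N mutant pull-down background, only proteins with at least twofold 3×MBT over mutant signal considered.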
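Throughout, for Relative to UNC0638 UNC Heavy: mass spectrometry (Q-Exactive) SILAC quantitation, DMSO/UNC0638 ratio computed after subtracting 3×MBTD355N mutant pull-down background, only proteins with at least twofold 3×MBT over mutant signal considered.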
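Throughout, for Relative to UNC0638 UNC Light: mass spectrometry (Q-Exactive) SILAC quantitation, DMSO/UNC0638 ratio computed after subtracting 3×MBTD355N mutant pull-down background, only proteins with at least twofold 3×MBT over mutant signal considered.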

Molecule | 3xMBT/D355N UNC Heavy [log base 2]
B1 | 2.43
B2 | 2.18
B3 | 2.51
B4 | 1.75

Same assay, conditions: SILAC ratio, pull-down 3xMBT vs 3xMBTD355N; experiment with UNC0638 in light SILAC media

Molecule | 3xMBT/D355N UNC Light [log base 2]
B1 | 2.10
B2 | 3.04
B3 | 2.76
B4 | 1.93

These molecules were tested against T1, G9a and GLP (Homo sapiens, UniProt Q96KQ7+Q9H9B1) (assay: Triple SILAC pull-down after UNC0638 treatment of 293T cells, DMSO/UNC0638 ratio of protein captured by 3×MBT). Conditions: SILAC ratio DMSO/UNC0638 of protein pulled down with 3xMBT; UNC0638 in heavy SILAC media.
T1 sequence (Q96KQ7 2-1210 limits assumed): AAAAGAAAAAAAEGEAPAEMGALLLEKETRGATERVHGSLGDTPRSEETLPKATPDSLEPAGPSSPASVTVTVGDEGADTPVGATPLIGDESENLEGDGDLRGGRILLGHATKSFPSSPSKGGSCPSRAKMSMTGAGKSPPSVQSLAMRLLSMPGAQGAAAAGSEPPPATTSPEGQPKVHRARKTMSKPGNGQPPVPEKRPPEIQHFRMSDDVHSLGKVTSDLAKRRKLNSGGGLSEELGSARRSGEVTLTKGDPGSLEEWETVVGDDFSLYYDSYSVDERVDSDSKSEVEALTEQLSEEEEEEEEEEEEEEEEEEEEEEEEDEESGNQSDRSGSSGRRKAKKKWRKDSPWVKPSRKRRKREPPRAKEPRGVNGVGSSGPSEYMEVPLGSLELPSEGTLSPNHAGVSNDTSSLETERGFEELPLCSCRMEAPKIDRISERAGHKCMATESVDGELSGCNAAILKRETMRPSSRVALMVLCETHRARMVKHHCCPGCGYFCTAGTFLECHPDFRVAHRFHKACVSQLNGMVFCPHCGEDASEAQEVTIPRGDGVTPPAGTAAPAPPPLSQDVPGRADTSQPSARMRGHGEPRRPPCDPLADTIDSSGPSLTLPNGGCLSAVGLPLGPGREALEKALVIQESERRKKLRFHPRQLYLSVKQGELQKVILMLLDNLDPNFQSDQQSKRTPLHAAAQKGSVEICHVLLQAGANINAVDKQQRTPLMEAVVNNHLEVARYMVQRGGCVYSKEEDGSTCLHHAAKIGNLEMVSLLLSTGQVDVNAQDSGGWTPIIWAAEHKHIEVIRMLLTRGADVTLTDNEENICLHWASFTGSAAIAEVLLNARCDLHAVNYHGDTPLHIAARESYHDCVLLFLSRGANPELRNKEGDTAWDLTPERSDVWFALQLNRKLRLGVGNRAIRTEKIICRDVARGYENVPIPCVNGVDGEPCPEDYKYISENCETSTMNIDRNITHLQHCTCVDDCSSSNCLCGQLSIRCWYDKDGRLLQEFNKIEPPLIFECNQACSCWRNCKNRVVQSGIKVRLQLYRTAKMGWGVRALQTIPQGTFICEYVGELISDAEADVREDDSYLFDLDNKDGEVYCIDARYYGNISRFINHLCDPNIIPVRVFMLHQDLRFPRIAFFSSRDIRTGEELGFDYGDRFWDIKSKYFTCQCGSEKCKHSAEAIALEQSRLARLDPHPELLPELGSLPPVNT
T1 sequence (Q9H9B1 2-1298 limits assumed): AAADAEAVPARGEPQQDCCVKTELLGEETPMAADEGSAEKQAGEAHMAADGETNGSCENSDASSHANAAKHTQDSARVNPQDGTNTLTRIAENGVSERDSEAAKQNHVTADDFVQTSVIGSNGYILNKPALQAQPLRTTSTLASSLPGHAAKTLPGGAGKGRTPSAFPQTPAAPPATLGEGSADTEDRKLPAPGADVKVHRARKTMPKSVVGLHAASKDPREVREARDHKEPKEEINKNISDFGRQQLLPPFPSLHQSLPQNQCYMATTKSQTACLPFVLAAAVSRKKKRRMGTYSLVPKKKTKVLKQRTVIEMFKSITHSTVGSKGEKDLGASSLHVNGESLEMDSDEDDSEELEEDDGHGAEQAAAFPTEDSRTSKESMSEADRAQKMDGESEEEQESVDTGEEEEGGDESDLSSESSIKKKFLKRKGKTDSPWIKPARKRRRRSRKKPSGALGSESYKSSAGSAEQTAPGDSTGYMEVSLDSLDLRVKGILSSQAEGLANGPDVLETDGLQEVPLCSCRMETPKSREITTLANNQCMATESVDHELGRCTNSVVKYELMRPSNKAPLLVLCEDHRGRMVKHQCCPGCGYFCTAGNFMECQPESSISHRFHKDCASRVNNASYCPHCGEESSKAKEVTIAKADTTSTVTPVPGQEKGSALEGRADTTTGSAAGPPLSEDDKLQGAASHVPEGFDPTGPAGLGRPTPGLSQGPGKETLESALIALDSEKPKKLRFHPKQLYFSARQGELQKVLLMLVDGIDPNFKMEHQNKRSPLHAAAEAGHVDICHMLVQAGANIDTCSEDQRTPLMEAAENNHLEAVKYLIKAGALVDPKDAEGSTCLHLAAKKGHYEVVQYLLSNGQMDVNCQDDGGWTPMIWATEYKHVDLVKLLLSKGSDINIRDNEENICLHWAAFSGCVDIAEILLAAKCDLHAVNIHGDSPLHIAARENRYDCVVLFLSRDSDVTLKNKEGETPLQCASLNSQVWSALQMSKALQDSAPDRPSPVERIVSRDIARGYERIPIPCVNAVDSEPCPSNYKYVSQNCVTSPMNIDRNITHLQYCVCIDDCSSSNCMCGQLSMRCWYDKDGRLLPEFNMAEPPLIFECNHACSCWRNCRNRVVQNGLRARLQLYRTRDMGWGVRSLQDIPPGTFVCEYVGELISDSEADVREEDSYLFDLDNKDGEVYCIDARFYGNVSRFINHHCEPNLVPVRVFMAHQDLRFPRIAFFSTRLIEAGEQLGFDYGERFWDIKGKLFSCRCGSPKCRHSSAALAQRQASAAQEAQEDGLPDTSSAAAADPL
Assay type: cell-based
Set-up: endogenous in cells; host or cells: HEK 293T

Molecule | Relative to UNC0638 UNC Heavy [log base 2]
B1 | 0.45
B2 | 0.28
B3 | 0.39
B4 | 0.14

Same assay, conditions: SILAC ratio DMSO/UNC0638 of protein pulled down with 3xMBT; UNC0638 in light SILAC media

Molecule | Relative to UNC0638 UNC Light [log base 2]
B1 | 0.19
B2 | 0.33
B3 | 0.14
B4 | 0.38

Same assay, conditions: average of UNC Light and UNC Heavy experiments

Molecule | Relative to UNC0638 Average [log base 2]
B1 | 0.32
B2 | 0.30
B3 | 0.26
B4 | 0.26
